# Patent publication US20250136677A1 (ZOETIS SERVICES, published 2025)
# Residue numbers refer to the chain shown, from its start.
# T1: wildtype feline IL-31 protein (Feline_IL31_wildtype) (feline)
# T1 chain: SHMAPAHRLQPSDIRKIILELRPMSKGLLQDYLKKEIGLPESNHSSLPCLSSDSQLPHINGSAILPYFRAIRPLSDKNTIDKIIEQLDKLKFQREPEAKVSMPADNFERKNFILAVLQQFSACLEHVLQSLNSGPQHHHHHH
# B1: A44 (antibody, V domains shown)
# VH: QVLLVQSGAEVRTPGASVKIFCKASGYSFTSYTIHWLRQAPAQGLEWMGNINPTSAYTENNQRFKDRLTLTADTSTNTAYMELSSLRSADTAMYYCARWGFKYDGEWSFDVWGAGTTVTVSS
# VL: EIQMTQSPSSLSASPGDRVTITCRASQGISIWLSWYQQKPGNIPKVLINKASNLHIGVPSRFSGSGSGTDFTLTISSLEPEDAATYYCLQSQTYPLTFGGGTKLEIK
# B2: A45 (antibody, V domains shown)
# VH: B1 VH with A56G, Y57A
# VL: B1 VL
# B3: A47 (antibody, V domains shown)
# VH: B1 VH with A56G, E59A
# VL: B1 VL
# B4: A48 (antibody, V domains shown)
# VH: B1 VH with A56G, N60A
# VL: B1 VL
# B5: A49 (antibody, V domains shown)
# VH: B1 VH with A56G, N61A
# VL: B1 VL
# B6: A50 (antibody, V domains shown)
# VH: B1 VH with A56G, Q62A
# VL: B1 VL
# B7: A52 (antibody, V domains shown)
# VH: B1 VH with A56G, W99A
# VL: B1 VL
# B8: A54 (antibody, V domains shown)
# VH: B1 VH with A56G, F101A
# VL: B1 VL
# B9: A55 (antibody, V domains shown)
# VH: B1 VH with A56G, K102A
# VL: B1 VL
# B10: A57 (antibody, V domains shown)
# VH: B1 VH with A56G, D104A
# VL: B1 VL
# B11: A58 (antibody, V domains shown)
# VH: B1 VH with A56G, G105A
# VL: B1 VL
# B12: A60 (antibody, V domains shown)
# VH: B1 VH with A56G, W107A
# VL: B1 VL
# B13: A62 (antibody, V domains shown)
# VH: B1 VH with A56G, S108A
# VL: B1 VL
# B14: A63 (antibody, V domains shown)
# VH: B1 VH with A56G, F109A
# VL: B1 VL
# B15: A64 (antibody, V domains shown)
# VH: B1 VH with A56G, D110A
# VL: B1 VL
# B16: A65 (antibody, V domains shown)
# VH: B1 VH with A56G, V111A
# VL: B1 VL
# B17: A03 (antibody, V domains shown)
# VH: B1 VH with A56G
# VL: B1 VL with G28A
# notes: sample ID reads A03 although it stands between A07 and A09
# B18: A05 (antibody, V domains shown)
# VH: B1 VH with A56G
# VL: B1 VL with R24A
# B19: A06 (antibody, V domains shown)
# VH: B1 VH with A56G
# VL: B1 VL with S26A
# B20: A07 (antibody, V domains shown)
# VH: B1 VH with A56G
# VL: B1 VL with Q27A
# B21: A09 (antibody, V domains shown)
# VH: B1 VH with A56G
# VL: B1 VL with I29A
# B22: A10 (antibody, V domains shown)
# VH: B1 VH with A56G
# VL: B1 VL with S30A
# B23: A12 (antibody, V domains shown)
# VH: B1 VH with A56G
# VL: B1 VL with I31A
# B24: A13 (antibody, V domains shown)
# VH: B1 VH with A56G
# VL: B1 VL with W32A
# B25: A15 (antibody, V domains shown)
# VH: B1 VH with A56G
# VL: B1 VL with K50A
# B26: A16 (antibody, V domains shown)
# VH: B1 VH with A56G
# VL: B1 VL with S52A
# B27: A18 (antibody, V domains shown)
# VH: B1 VH with A56G
# VL: B1 VL with L54A
# B28: A20 (antibody, V domains shown)
# VH: B1 VH with A56G
# VL: B1 VL with I56A
# B29: A23 (antibody, V domains shown)
# VH: B1 VH with A56G
# VL: B1 VL with Q92A
# B30: A24 (antibody, V domains shown)
# VH: B1 VH with A56G
# VL: B1 VL with T93A
# B31: A25 (antibody, V domains shown)
# VH: B1 VH with A56G
# VL: B1 VL with Y94A
# B32: A26 (antibody, V domains shown)
# VH: B1 VH with A56G
# VL: B1 VL with P95A
# B33: A27 (antibody, V domains shown)
# VH: B1 VH with A56G
# VL: B1 VL with L96A
# Biological target: T1, wildtype feline IL-31 protein …
# Test: cell-based or functional assay
row,Binder,"% Inhibition Relative to Parent (pSTAT, FCWF-4 cells) [%]"
1,B1,36.9
2,B2,22.8
3,B3,18
4,B4,47.3
5,B5,46.6
6,B6,55.5
7,B7,-2.1
8,B8,-1
9,B9,66.8
10,B10,85.4
11,B11,15.3
12,B12,-8.7
13,B13,22.6
14,B14,-6
15,B15,6.9
16,B16,26.8

# Biological target: T1, wildtype feline IL-31 protein …
# Test: cell-based or functional assay
# Remark: another data set of the same source
row,Binder,"% Inhibition Relative to Parent (pSTAT, FCWF-4 cells) [%]"
1,B17,52.9
2,B18,0
3,B19,40
4,B20,93.6
5,B21,28
6,B22,26
7,B23,19.3
8,B24,4.4
9,B25,34.1
10,B26,69.3
11,B27,49.4
12,B28,29
13,B29,29.2
14,B30,56.7
15,B31,1.3
16,B32,43.7
17,B33,7.2

# Biological target: T1, wildtype feline IL-31 protein …
# Test: Biacore, feline IL-31 chip, mAb 100 nM, share of points within parent mean +/-3 SD
# Design: key: % of mutant data points within parent mAb mean ±3 SD
# Text: (§1) The mean response unit of four replicates of the parent mAb+/−3 standard deviations was used to generate parameters to define a threshold of response units comprising both the on- and off-rates antibody binding (FIG. 22). The percentage of data points for each mutant fell within this threshold was then used to define a “% similarity score” (FIG. 23).
row,Binder,Binding Similarity score
1,B1,55.8
2,B2,31.9
3,B3,100
4,B4,70.2
5,B5,37
6,B6,58.6
7,B7,2.4
8,B8,17.6
9,B9,12.6
10,B10,38.9
11,B11,16.7
12,B12,2.4
13,B13,46.1
14,B14,2.9
15,B15,2.7
16,B16,50.5

# Biological target: T1, wildtype feline IL-31 protein …
# Test: as above
# Design: key: % of mutant data points within parent mAb mean ±3 SD
# Remark: another data set of the same source
# Text: The region of an antibody responsible for antigen recognition represents the paratope. A paratope is created by a combination of amino acids in the complementarity determining regions (CDRs) of both the heavy and light chain variable regions. The binding between antibody and antigen is often mediated by side chains of CDR residues with side chains or carbohydrate moieties of the antigen. To help define critical side chains involved in antibody recognition alanine scanning mutagenesis was performed on each CDR residue in both the heavy and light chain. These mutants were then individually tested for the ability to bind feline IL-31 using the biacore and evaluated for inhibition of IL-31-mediated signaling in the FCWF-4 cell based assay.
# as §1
row,Binder,Binding Similarity score
1,B17,58
2,B18,25.6
3,B19,89.7
4,B20,74.4
5,B21,100
6,B22,63.4
7,B23,25.7
8,B24,2.4
9,B25,11.6
10,B26,58
11,B27,100
12,B28,31.3
13,B29,64.8
14,B30,100
15,B31,4.4
16,B32,20.9
17,B33,11.7
